Among the data in patent publication US20240262893A1 are pseudovirus neutralization, ng/mL (quantity not given) and live SARS CoV-2 neutralization, ng/mL (quantity not given) values, retold here.

Experiment [1] deals with SARS-CoV-2 B.1.351 ('SA', beta) variant spike protein on pseudotyped virus or live virus (SARS-CoV-2 (B.1.351)), P0DTC2. Kind of experiment: cell-based or functional assay.
Experiment [2] has as its target SARS-CoV-2 B.1.1.7 ('UK', alpha) variant spike protein on pseudotyped virus or live virus (SARS-CoV-2 (B.1.1.7)). Kind of experiment: cell-based or functional assay.

B1: R2D9 CDR3-knob (peptide)
peptide: ITHKTCPNGYNWFDRCCSWDGTCGDGCCSNRAWPSGNGRADSSIGETYGYEF
modifications: not checked
With B1, in experiment [1], the pseudovirus neutralization, ng/mL (quantity not given) worked out at 22.6 ng/mL.

B2: purified R2G3 CDR3-knob (after enterokinase cleavage from trxA) (peptide)
peptide: EGDKTCPDGYEHTCGCIGGCGCKRSACIGALCCQASLGGWLSDGETYTYEF
modifications: not checked
Consider B2, for which the live SARS CoV-2 neutralization, ng/mL (quantity not given) in experiment [2] was 2.48 ng/mL; in experiment [1], 374 ng/mL. The molecule also returned a pseudovirus neutralization, ng/mL (quantity not given) in experiment [1] of 66.2 ng/mL.
